In patent publication US20160017016A1 (AstraZeneca / MedImmune, published 2016):
*1 amine or outer side, *2 acyl side, *3 side chain or, on linkers, in order; H or OH if unused. Primed or numbered codes have the meaning given here. Where no end group is shown, it is not given here. Side-chain parts run from the residue outwards. [ ]: non-standard residue; d: D form. The star is where a group is joined. PEG4′ = 4 PEG units (K(PEGxpalm): Lys with x PEG units and palmitoyl at epsilon N, C-terminal (PEG)4); γGlu = O=C(O)[C@H](CCC(=O)[*:2])N[*:1]; Palmitoyl = CCCCCCCCCCCCCCCC(=O)*; Aib = CC(C)(N)C(=O)O; PEG2′ = 2 PEG units

B1: g438 (peptide)
peptide: HSQGTFTSDYSKYLDSXRAQDFVQWLV
modifications: not fully specified; K(PEG4-palm) at 17; C-terminal PEG6
B2: g677 (peptide)
peptide: HGQGTFTSDYSEYLDSK([γGlu-Palmitoyl])RARDFVEWLV[PEG4′]
B3: g415 (peptide)
peptide: HSQGTFTSDYSKYLDSRKRAQDFVQWLV[PEG4′]
modifications: not fully specified (residue 18); printed as HSQGTFTSDYSKYLDSRB1RAQDFVQWLVZ4
B4: g433 (peptide)
peptide: HSEGTFTSDYSKYLDSKRAQDFVQWLV[PEG4′]
modifications: not fully specified (residue 17); printed as HSEGTFTSDYSKYLDSB1RAQDFVQWLVZ4
B5: g440 (peptide)
peptide: HSQGTFTSDYSKYLDSXRAQDFVQWLV
modifications: not fully specified; K(PEG4-palm) at 17; C-terminal PEG12
B6: g690 (peptide)
peptide: HGQGTFTSDYSKYLDSXRAQDFVQWLV
modifications: K(gE-palm) at 17; C-terminal PEG3
B7: g435 (peptide)
peptide: HSQGTFTSDYSKYLDSXRAQDFVQWLV
modifications: not fully specified; K(PEG2-palm) at 17; C-terminal PEG4
B8: g499 (peptide)
peptide: HGQGTFTSDYSKYLESK([PEG4′-Palmitoyl])RAQDFVQWLV[PEG4′]
B9: g784 (peptide)
peptide: HSQGTFTSDYSEYLDSK([γGlu-Palmitoyl])RARDFVAWLV[PEG4′]
B10: g500 (peptide)
peptide: HXQGTFTSDYSKYLDSXRAQDFVQWLV
modifications: alpha-amino-iso-butyric acid (Aib) at 2; K(gE-palm) at 17; C-terminal PEG4
B11: g810 (peptide)
peptide: HSQGTFTSDYSKYLDEK([γGlu-Palmitoyl])RAQDFVQWLV[PEG4′]
B12: g496 (peptide)
peptide: HSQGTFTSDYSKYLDK([γGlu-Palmitoyl])RRAQDFVQWEV[PEG4′]
B13: g436 (peptide)
peptide: HSQGTFTSDYSKYLDSXRAQDFVQWLV
modifications: not fully specified; K(PEG4-palm) at 17; C-terminal PEG3
B14: g432 (peptide)
peptide: HSEGTFTSDYSKYLDSK([γGlu-Palmitoyl])RAQDFVQWLV[PEG4′]
B15: g431 (peptide)
peptide: HGQGTFTSDYSKYLDSXRAQDFVQWLV
modifications: not fully specified; K(PEG4-palm) at 17; C-terminal PEG4
B16: g437 (peptide)
peptide: HSQGTFTSDYSKYLDSXRAQDFVQWLV
modifications: not fully specified; K(PEG4-palm) at 17; C-terminal PEG2
B17: g870 (peptide)
peptide: H[Aib]QGTFTSDYSKYLDSK([γGlu-Palmitoyl])RAQDFVAWLV[PEG4′]
B18: g501 (peptide)
peptide: HXQGTFTSDYSKYLDSXRAQDFVQWLV
modifications: alpha-amino-iso-butyric acid (Aib) at 2; K(PEG4-palm) at 17; C-terminal PEG4
B19: g516 (peptide)
peptide: HGQGTFTSDYSKYLDSXRAQDFVQWLE
modifications: K(gE-palm) at 17; C-terminal PEG4
B20: g691 (peptide)
peptide: HGQGTFTSDYSKYLDSXRAQDFVQWLV
modifications: K(gE-palm) at 17; C-terminal PEG2
B21: g692 (peptide)
peptide: HGQGTFTSDYSKYLDSXRAQDFVQWLV
modifications: K(gE-palm) at 17; C-terminal PEG6
B22: g414 (peptide)
peptide: HSQGTFTSDYSKYLDSXRAQDFVQWLV
modifications: K(gE-palm) at 17; C-terminal PEG4
B23: g808 (peptide)
peptide: HSQGTFTSDYSKYLDSRRAQXFVQWLV
modifications: K(gE-palm) at 21; C-terminal PEG4
B24: g800 (peptide)
peptide: HSQGTFTSDYSKYLDSK([γGlu-Palmitoyl])RARDFVAWLV[PEG4′]
B25: g719 (peptide)
peptide: HGQGTFTSDYSRYLDSK([γGlu-Palmitoyl])RARDFVEWLV[PEG4′]
B26: g533 (peptide)
peptide: HSQGTFTSDYSKYLDSKRAQDFVQWLEA
modifications: K(gE-palm) at 17 (printed as B); C-terminal PEG2
B27: g416 (peptide)
peptide: HSQGTFTSDYSXYLDSRRAQDFVQWLV
modifications: K(gE-palm) at 12; C-terminal PEG4
B28: g434 (peptide)
peptide: HSQGTFTSDYSKYLDSXRAQDFVQWLV
modifications: K(PEG3-palm) at 17; C-terminal PEG4
B29: g439 (peptide)
peptide: HSQGTFTSDYSKYLDSXRAQDFVQWLV
modifications: not fully specified; K(PEG4-palm) at 17; C-terminal PEG8
B30: g356 (peptide)
peptide: HSQGTFTSDYSKYLDSRRAQDFVQWLV
modifications: C-terminal PEG4
B31: g968 (peptide)
peptide: H[Aib]QGTFTSDYSKYLDSK([PEG4′-γGlu-Palmitoyl])RARDFVAWLV[PEG4′]
B32: g456 (peptide)
peptide: HSQGTFTSDYSKYLDSRRAXDFVQWLV
modifications: K(gE-palm) at 20; C-terminal PEG4
B33: g430 (peptide)
peptide: HGQGTFTSDYSKYLDSXRAQDFVQWLV
modifications: K(gE-palm) at 17; C-terminal PEG4
B34: g964 (peptide)
peptide: HSQGTFTSDYSKYLDSXRAQDFVQWLV
modifications: not fully specified; K(PEG4-gE-palm) at 17; C-terminal PEG4
B35: g426 (peptide)
peptide: HSQGTFTSDYSKYK([γGlu-Palmitoyl])DSRRAQDFVQWLV[PEG4′]
B36: g868 (peptide)
peptide: H[Aib]QGTFTSDYSKYK([γGlu-Palmitoyl])DSERARDFVAWLV[PEG4′]
B37: g497 (peptide)
peptide: HSQGTFTSDYSKYLDK([PEG4′-Palmitoyl])RRAQDFVQWEV[PEG4′]
B38: g355 (peptide)
peptide: HSQGTFTSDYSKYLDSRRAQDFVQWLV
modifications: C-terminal PEG2
B39: g970 (peptide)
peptide: HSQGTFTSDYSKK([PEG4′-Palmitoyl])LDSSRARDFVAWLV[PEG4′]
B40: g809 (peptide)
peptide: HSQGTFTSDYSKYLDSRAAQK([γGlu-Palmitoyl])FVQWLV[PEG4′]
B41: g459 (peptide)
peptide: HSQGTFTSDYSKYLDSK([PEG4′-Palmitoyl])RAQDFVQWEV[PEG4′]
B42: g455 (peptide)
peptide: HSQGTFTSDYSKYLDSRKAQDFVQWLE[PEG4′]
modifications: not fully specified (residue 18); printed as HSQGTFTSDYSKYLDSRB1AQDFVQWLEZ4
B43: g458 (peptide)
peptide: HSQGTFTSDYSKYLDSK([γGlu-Palmitoyl])RAQDFVQWEV[PEG4′]
B44: g775 (peptide)
peptide: HSQGTFTSDYSEYLDSK([γGlu-Palmitoyl])RAADFVQWLV[PEG4′]
modifications: not fully specified; printed as HSQGTFTSDYSEYLDSBRAADFVQWLVZ4
B45: g971 (peptide)
peptide: HSQGTFTSDK([PEG4′-Palmitoyl])SKYLDSSRARDFVAWLV[PEG4′]
B46: g967 (peptide)
peptide: HSQGTFTSDYSKYLDSK([PEG4′-γGlu-Palmitoyl])RARDFVAWLE[PEG2′]
B47: g676 (peptide)
peptide: HSQGTFTSDYSEYLDSK([γGlu-Palmitoyl])RAQDFVQWLV[PEG4′]
B48: g807 (peptide)
peptide: HSQGTFTSDYSKYK([γGlu-Palmitoyl])DEERAQDFVQWLV[PEG4′]
B49: g965 (peptide)
peptide: HSQGTFTSDYSKYLDSXRAQDFVQWLV
modifications: not fully specified; K(PEG2-gE-palm) at 17; C-terminal PEG4
B50: g966 (peptide)
peptide: HSQGTFTSDYSKYLDSXRAQDFVQWLE
modifications: not fully specified; K(PEG2-PEG2-gE-palm) at 17; C-terminal PEG4

What follows are binders tested against human GLP-1 receptor (GLP-1R) (human, UniProt P43220 24-463) (assay: cell-based or functional assay).

Row | cAMP activity, GLP1 EC50 nM [nM] | Binder
1 | 0.005 | B1
2 | 0.3 | B2
3 | 0.007 | B3
4 | 0.004 | B4
5 | 0.008 | B5
6 | 0.06 | B6
7 | 0.01 | B7
8 | 0.02 | B8
9 | 0.3 | B9
10 | 0.08 | B10
11 | 0.5 | B11
12 | 8 | B12
13 | 0.01 | B13
14 | 0.07 | B14
15 | 0.006 | B15
16 | 0.006 | B16
17 | 0.09 | B17
18 | 0.03 | B18
19 | 0.6 | B19
20 | 0.05 | B20
21 | 0.06 | B21
22 | 0.2 | B22
23 | 50 | B23
24 | 0.09 | B24
25 | 0.09 | B25
26 | 0.09 | B26
27 | 1 | B27
28 | 0.005 | B28
29 | 0.008 | B29
30 | 0.05 | B30

Each binder was assayed against human glucagon receptor (GCGR) (human, UniProt P47871 26-477) (assay: cell-based or functional assay).
human glucagon receptor (GCGR), sequence (P47871 26-477): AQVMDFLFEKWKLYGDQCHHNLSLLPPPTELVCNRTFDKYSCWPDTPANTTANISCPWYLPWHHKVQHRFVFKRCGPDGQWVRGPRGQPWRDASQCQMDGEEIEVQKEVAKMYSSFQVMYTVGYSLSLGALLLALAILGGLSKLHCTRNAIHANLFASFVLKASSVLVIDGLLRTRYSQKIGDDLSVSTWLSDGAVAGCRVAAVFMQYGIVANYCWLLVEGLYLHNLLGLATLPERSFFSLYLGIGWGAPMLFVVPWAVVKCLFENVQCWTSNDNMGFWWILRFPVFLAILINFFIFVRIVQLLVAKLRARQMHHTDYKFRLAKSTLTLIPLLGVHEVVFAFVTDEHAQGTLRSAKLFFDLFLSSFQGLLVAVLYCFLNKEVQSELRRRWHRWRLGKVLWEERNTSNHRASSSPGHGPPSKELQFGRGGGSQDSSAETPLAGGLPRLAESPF

Row | cAMP activity, Glcg EC50 nM [nM] | Binder
31 | 0.006 | B31
32 | 0.002 | B1
33 | 0.07 | B32
34 | 0.8 | B33
35 | 0.002 | B34
36 | 0.003 | B35
37 | 0.002 | B3
38 | 0.03 | B4
39 | 0.02 | B36
40 | 0.002 | B5
41 | 0.3 | B37
42 | 0.03 | B38
43 | 0.1 | B6
44 | 0.002 | B7
45 | 0.03 | B8
46 | 0.003 | B39
47 | 0.03 | B11
48 | 0.07 | B40
49 | 0.002 | B13

Row | cAMP activity, Glcg EC50 nM [nM] | Binder
50 | 0.3 | B41
51 | 0.001 | B42
52 | 9 | B43
53 | 0.004 | B15
54 | 0.002 | B16
55 | 0.003 | B18
56 | 0.08 | B19
57 | 0.08 | B44
58 | 0.007 | B45
59 | 0.006 | B46
60 | 40 | B47
61 | 0.01 | B48
62 | 0.002 | B49
63 | 0.003 | B26
64 | 0.6 | B27
65 | 0.02 | B28
66 | 0.001 | B50
67 | 0.002 | B29
